Where two headings read alike, the source gives them in different places. Values belong to the molecule of their own block, whether it stands above or below them.
Experiments:
[1] = target: recombinant trBcl-2L1 (Trichoplax adhaerens Bcl-2-like protein 1), lacking the 33 N-terminal and 29 C-terminal residues (Trichoplax adhaerens); experiment: ITC
[2] = target: recombinant trBcl-2L2 (Trichoplax adhaerens Bcl-2-like protein 2), lacking the 7 N-terminal and 34 C-terminal residues (Trichoplax adhaerens); experiment: ITC
[3] = target: T1, Flag-tagged trBcl-2L2 (Trichoplax adhaerens, UniProt A0A1B1IJN9 1-211); experiment: FRET or BRET
T1 sequence (looked up): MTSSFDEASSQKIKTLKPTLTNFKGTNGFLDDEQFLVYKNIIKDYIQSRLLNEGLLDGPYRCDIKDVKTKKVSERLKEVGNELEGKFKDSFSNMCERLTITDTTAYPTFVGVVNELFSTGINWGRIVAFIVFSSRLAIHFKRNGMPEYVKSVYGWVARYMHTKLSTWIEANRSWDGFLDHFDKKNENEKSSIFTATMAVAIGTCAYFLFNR

[4] = target: T2, Flag-tagged trBcl-2L1 (Trichoplax adhaerens, UniProt A0A1B1IJP0 1-215); experiment: FRET or BRET
T2 sequence (looked up): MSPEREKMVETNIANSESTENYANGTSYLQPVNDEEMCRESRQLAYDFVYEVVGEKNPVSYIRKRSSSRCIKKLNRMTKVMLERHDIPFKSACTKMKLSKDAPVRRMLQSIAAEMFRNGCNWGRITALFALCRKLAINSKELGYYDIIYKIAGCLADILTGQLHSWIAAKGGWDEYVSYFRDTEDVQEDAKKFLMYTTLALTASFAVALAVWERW

[5] = target: recombinant trBcl-2L1 (Trichoplax adhaerens Bcl-2-like protein 1), lacking the 33 N-terminal and 29 C-terminal residues (Trichoplax adhaerens); experiment: ITC; remark: listed apart in the source
[6] = target: recombinant trBcl-2L2 (Trichoplax adhaerens Bcl-2-like protein 2), lacking the 7 N-terminal and 34 C-terminal residues (Trichoplax adhaerens); experiment: ITC; remark: listed apart in the source
[7] = target: T3, recombinant human Bcl-w (residues 9 to 152) (human, UniProt Q92843 9-152); experiment: ITC
T3 sequence (looked up): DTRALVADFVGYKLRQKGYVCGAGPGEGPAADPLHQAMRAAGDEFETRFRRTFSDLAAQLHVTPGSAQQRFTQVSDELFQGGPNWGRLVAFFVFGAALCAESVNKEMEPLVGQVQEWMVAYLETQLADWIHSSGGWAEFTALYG

[8] = target: T4, recombinant human A1/Bfl-1 (residues 1 to 151) (human, UniProt Q16548 1-151); experiment: ITC
T4 sequence (looked up): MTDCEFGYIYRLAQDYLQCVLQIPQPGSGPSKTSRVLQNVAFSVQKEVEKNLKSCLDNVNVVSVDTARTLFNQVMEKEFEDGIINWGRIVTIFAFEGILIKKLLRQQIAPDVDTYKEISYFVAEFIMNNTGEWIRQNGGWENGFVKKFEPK

[9] = target: recombinant human Mcl-1 (residues 171 to 320) (human, UniProt Q07820 171-320); experiment: ITC
Chain of recombinant human Mcl-1 (residues 171 to 320) (Q07820 171-320): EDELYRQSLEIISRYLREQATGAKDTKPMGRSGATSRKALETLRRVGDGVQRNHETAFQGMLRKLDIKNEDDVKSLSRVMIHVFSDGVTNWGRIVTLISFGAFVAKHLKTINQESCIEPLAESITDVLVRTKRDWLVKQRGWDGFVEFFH

[10] = target: recombinant human Bcl-xL (residues 1 to 209, Δloop45 to 84) (human, UniProt Q07817-1 1-209, Δloop45 to 84); experiment: ITC
[11] = target: recombinant human Bcl-2 (residues 10 to 203) (human, UniProt P10415 10-203); experiment: ITC
Chain of recombinant human Bcl-2 (residues 10 to 203) (P10415 10-203): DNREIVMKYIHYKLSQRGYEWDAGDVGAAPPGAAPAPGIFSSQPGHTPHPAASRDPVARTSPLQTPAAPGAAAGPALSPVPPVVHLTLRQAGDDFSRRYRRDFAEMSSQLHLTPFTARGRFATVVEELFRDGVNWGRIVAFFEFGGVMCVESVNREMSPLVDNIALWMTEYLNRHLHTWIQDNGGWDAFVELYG

Kd [1]: 83 nM
Kd [2]: 41 nM
Molecule: hsBim BH3 peptide

Kd [1]: 5 nM
Kd [2]: 81 nM
Molecule: hsPuma BH3 peptide

FRET efficacy [3]: 2.81%
FRET efficacy [4]: 5.84%
B2: EGFP-tagged trBax (natural protein, Trichoplax adhaerens, UniProt A0A1B1IJP1 1-241, looked up)
chain: MADFTYVLITRSISTIFSSSCLIAMAHVKSVTSTPTTTTTTTTQSCPRREENLKEIAAESKKLFLDFIADRSAKDGQDQGCISQLTREHNELQIEPTSPTIQVARTIRQIGDELDSDPHLNGLLHKLHVTSSTAYSTFRRVAMRIFQDGQFNWGRIITLFFFGYRLTIRVLSESPIVEMIISWIARFIYEICSFWIAESGGWDAITQYIQQADWKNKYTLGLIAVGVLVTAFVTWQRYNSS

Second part, the molecule before the results:

Molecule: hsBid BH3 peptide
Kd [1]: 124 nM
Kd [2]: 170 nM

Molecule: hsBax BH3 peptide
Kd [1]: 7 nM
Kd [2]: 15 nM

B1: EGFP-tagged trBak (natural protein, Trichoplax adhaerens, UniProt A0A1B1IJN7 1-251, looked up)
chain: MSSTITIAESLENGENNDEQEEANTSRSQFRVTRAQVIRRQLSANPAHLPVSEQEVINETSSIFRSFVVESYQAERDGGIIAEEVRSFADQVQSSSNQTITPSSPTSEIGRHLAQLGDSYSVRFQNEFRLMITHLDINPGTAYRTFAGVARRLFRDGISWRRIVTLMAFGYQIAIDVMRSGVQGFLSRICNFIVRFISGEHIANWIARQGGWRAARYEGLASPGWPAIIGVATAAAASVFGVLWLSGYFRE
FRET efficacy [3]: 5.45%
FRET efficacy [4]: 11.2%

Molecule: IEPTSPTIQVARTIRQIGDELDSDPHLN [trBax BH3 peptide]
Kd [5]: 426 nM
Kd [6]: 728 nM
Kd [7]: 767 nM
Kd [8]: 135 nM
Kd [9]: 67 nM
Kd [10]: 877 nM
Kd [11]: 3060 nM

Molecule: PSSPTSEIGRHLAQLGDSYSVRFQNE [trBak BH3 peptide]
Kd [5]: 1430 nM
Kd [6]: 563 nM
binding result [7]: binds
Kd [8]: 13 nM
binding result [9]: binds
Kd [10]: 197 nM
Kd [11]: 45 nM
